Numbering of substitutions follows the chain as printed. Blank lines part the entries; values can stand above or below the binder they belong to.
Experiments:
[1] = biological target: T1, human CD39 on the cell membrane (CHO-K1-human CD39 stable cell line); SK-MEL-28 melanoma cells; human CD4+ T … (human, UniProt P49961 1-510); test: FACS on CHO-K1-human CD39 cells
T1 construct: Overexpressed on CHO-K1 cells or endogenous on SK-MEL-28 / T cells; the assay field says which cells; also called huCD39; CHO-K1-huCD39
T1 sequence: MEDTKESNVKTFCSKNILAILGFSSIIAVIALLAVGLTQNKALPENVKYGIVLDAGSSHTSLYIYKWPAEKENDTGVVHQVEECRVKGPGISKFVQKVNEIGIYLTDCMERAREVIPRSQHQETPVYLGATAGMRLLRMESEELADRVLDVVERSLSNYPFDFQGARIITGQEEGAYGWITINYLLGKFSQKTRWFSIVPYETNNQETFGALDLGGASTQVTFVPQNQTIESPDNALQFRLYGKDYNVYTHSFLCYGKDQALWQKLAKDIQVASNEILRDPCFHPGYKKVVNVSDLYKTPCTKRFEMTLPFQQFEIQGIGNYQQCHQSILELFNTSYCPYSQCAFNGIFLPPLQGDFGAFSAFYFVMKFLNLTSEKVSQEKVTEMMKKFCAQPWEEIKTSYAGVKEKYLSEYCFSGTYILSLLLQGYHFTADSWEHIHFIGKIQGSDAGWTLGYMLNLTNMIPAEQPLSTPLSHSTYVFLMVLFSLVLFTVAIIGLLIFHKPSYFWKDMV
Method: (§1) The ability of the purified antibodies to bind to cell membrane human CD39, cynomolgus monkey CD39, or mouse CD39 was determined by FACS analysis. CHO-K1 cells stably transfected to overexpress human CD39, cynomolgus monkey CD39, or mouse CD39 (CHO-K1-huCD39 cells, CHO-K1-cyCD39 cells, and CHOK1-muCD39 cells) were generated for use in this assay. Briefly, SK-MEL-28 melanoma cells (ATCC) or CD39 overexpressing stable CHO cell lines were resuspended in PBS containing 2% FBS (FACS buffer) and seeded at 1-5×10⁵ cells/well into U-bottomed plates. Anti-CD39 mAbs or isotype control antibodies diluted in FACS buffer were added to the wells and incubated for 1 hour at 4° C. After washing with FACS buffer, 1:1000 diluted Fluorescence-labeled secondary antibody (Life Technologies/ThermoFisher Scientific) were added and incubated for 30 min. at 4° C. Unbound secondary mAb was removed by washing with FACS buffer three times, and the samples were then read on a FACS instrument. The data were processed by GraphPad software.

[2] = biological target: T2, cynomolgus monkey CD39 on CHO-K1 cells (cynomolgus monkey, UniProt A0A7N9DGH8 1-510); test: FACS on CHO-K1-cyno CD39 cells
T2 construct: whole, on cells; also called CHO-K1-cyCD39; CHO-K1-cyno CD39
T2 sequence: T1 sequence with V47I, F94Y, V221I, I230T, I329V, K368N, A391S, F489V, T490I
Method: as §1

[3] = biological target: T1, human CD39 on the cell membrane …; test: cell-based or functional assay
huCD39-ECD-His [4] = biological target: T3, huCD39-ECD-His (human, UniProt P49961 38-478); test: BLI (Octet RED96), antibody captured on AMC biosensor, antigen in solution
T3 construct: also called C-terminally hexahistidine-tagged human CD39 extracellular domain
T3 sequence: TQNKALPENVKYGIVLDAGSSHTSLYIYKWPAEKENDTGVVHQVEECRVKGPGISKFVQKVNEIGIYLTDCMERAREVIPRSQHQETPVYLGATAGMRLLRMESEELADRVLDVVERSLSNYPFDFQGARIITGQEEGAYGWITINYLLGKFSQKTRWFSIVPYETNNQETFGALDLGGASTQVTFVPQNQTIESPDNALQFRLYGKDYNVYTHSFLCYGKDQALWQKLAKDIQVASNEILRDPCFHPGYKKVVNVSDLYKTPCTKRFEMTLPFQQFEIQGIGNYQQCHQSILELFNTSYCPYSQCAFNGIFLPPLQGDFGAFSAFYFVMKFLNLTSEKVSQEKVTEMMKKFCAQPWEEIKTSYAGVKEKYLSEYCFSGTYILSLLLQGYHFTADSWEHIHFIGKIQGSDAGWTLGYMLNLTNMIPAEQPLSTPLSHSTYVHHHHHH
Method: Anti-CD39 antibodies were characterized for affinities and binding kinetics using the Octet®RED96 biolayer interferometry system (Pall FortéBio LLC). Purified anti-CD39 antibodies were captured by Anti-Mouse IgG Fc Capture (AMC) biosensors or Anti-Human IgG Fc Capture (AHC) biosensors at a concentration of 100 nM for 30 seconds. Biosensors were then dipped into running buffer (1X pH7.2 PBS, 0.05% Tween 20, 0.1% BSA) for 60 seconds to check baseline. Binding was measured by dipping sensors into purified recombinant human CD39 protein, 3-fold serial diluted from 200 nM, for 120 seconds. Dissociation was followed by dipping sensors into running buffer for 600 seconds. The association and dissociation curves were fitted to a 1:1 Langmuir binding model using Fortebio Data Analysis software (Pall FortéBio LLC).

[5] = biological target: T1, human CD39 on the cell membrane …; test: cell-based or functional assay; remark: listed apart in the source
huCD39-ECD-His [6] = biological target: T3, huCD39-ECD-His; test: SPR (Biacore T200), antibody captured by anti-mouse IgG Fc, antigen in solution
Method: The binding kinetics of purified antibodies was determined by surface plasmon resonance-based measurements using a Biacore T200 instrument (GE Healthcare). Briefly, goat anti-mouse IgG Fc polyclonal antibody (Genway) was directly immobilized across a biosensor chip, and antibody samples were injected over reaction matrices at a flow rate of 5 μl/min. The association and dissociation rate constants, kₒₙ (M⁻¹s⁻¹) and koff(s⁻¹), respectively, were determined by making kinetic binding measurements of anti-CD39 antibody capture at five different concentrations of a recombinant human or mouse CD39 target protein (huCD39-ECD-His or muCD39-ECD-His). The equilibrium dissociation constant KD (M) of the reaction between antibodies and related target proteins was then calculated from the kinetic rate constants using the formula: KD=koff/kₒₙ. Binding affinities for murine anti-human CD39 antibodies mAb635 and mAb638 are shown in Table 9; binding affinity for rat anti-mouse CD39 antibody mAb605 is shown in Table 10.

EC50 [1]: 1.92 nM
EC50 [2]: 2.18 nM
IC50 (read off the curve), cell-surface huCD39 ATPase activity [3]: ~0.07 nM
B1: mAb629 (antibody, V domains shown)
VH: QVQLKQSGPGLVRPSQSLSITCTVSGFSLTRFGIHWVRQSPGKGLEWLGVIWGGGSTDYDAGFISRLTITKDHSKSQVLFKINSLEADDTAMYYCATKDDDYLEAWFAHWGQGTLVTVSA
VL: NIVMTQSPKSVSMSVGERVTLSCKASENVGTYVSWYQQKSERSPRLLIYGASSRYTGVPDRFTGSGSATDFTLTISSVQAEDLADYHCGQSYSYPYTFGGGTKLEIK
notes: mouse anti-human CD39 hybridoma mAb, IgG2a, κ

EC50 [1]: 3.34 nM
Kd (huCD39-ECD-His [4]): 2.27 nM
koff (huCD39-ECD-His [4]): 0.000426 s⁻¹
kon (huCD39-ECD-His [4]): 188000 M⁻¹ s⁻¹
EC50 [2]: 19.2 nM
IC50 (read off the curve), cell-surface hCD39 ATPase activity [5]: ~0.4 nM
Kd (huCD39-ECD-His [6]): 0.203 nM
koff (huCD39-ECD-His [6]): 0.000117 s⁻¹
kon (huCD39-ECD-His [6]): 574000 M⁻¹ s⁻¹
IC50 (read off the curve), cell-surface huCD39 ATPase activity [3]: ~0.4 nM
B2: mAb638 (antibody, V domains shown)
VH: QVQLQQPGTELVKPGASVKLSCKASGYTFTSFWMHWVKQRPGQGLEWIGNINPRNGATKYNEKFRSKVTLTADKTSSTAYMHLSSLTSEDSAVYYCAREDYDEIYYAMDSWGQGTSVTVSS
VL: QNVLTQSPAIMSASPGEKVTMTCSASSSVIYMYWFQQKPGSSPRVLIYDTSNLASGVPARFSGSGSGTSYSLTISRMEAEDAATYYCQQWSTYPLTFGAGTKLELK
notes: mouse anti-human CD39 hybridoma mAb, IgG1, κ

EC50 [1]: 12.7 nM
EC50 [2]: 10.6 nM
B3: mAb636 (antibody, V domains shown)
VH: QVQLQQPGTELVMPGASVTLSCKASGYSFISYWMHWVKQRPGQGLEWIGEIDPSDDYTNYNQNFKGKATLTVDRSSSTAYMQLNSLTSEDSAVYYCAREENGIYYYNKGYLDVWGTGTTVTVSS
VL: DIVMTQTAFSNPVTLGTSASISCRSSKSLLHSNGITYLYWYLQKPGQSPQVLIYQMSNLASGVPDRFSCSGSGTDFTLRITRVEAEDVGFYYCAQNLELPYTFGGGTKLEMK
notes: as for B1
